Measured values reported in PMC11154737.

Target: Streptolysin O (SLO), wild type, full length (Streptococcus pyogenes) (UniProt P0DF96)
Test: ELISA

Chain of UniProt P0DF96 (P0DF96 34-571): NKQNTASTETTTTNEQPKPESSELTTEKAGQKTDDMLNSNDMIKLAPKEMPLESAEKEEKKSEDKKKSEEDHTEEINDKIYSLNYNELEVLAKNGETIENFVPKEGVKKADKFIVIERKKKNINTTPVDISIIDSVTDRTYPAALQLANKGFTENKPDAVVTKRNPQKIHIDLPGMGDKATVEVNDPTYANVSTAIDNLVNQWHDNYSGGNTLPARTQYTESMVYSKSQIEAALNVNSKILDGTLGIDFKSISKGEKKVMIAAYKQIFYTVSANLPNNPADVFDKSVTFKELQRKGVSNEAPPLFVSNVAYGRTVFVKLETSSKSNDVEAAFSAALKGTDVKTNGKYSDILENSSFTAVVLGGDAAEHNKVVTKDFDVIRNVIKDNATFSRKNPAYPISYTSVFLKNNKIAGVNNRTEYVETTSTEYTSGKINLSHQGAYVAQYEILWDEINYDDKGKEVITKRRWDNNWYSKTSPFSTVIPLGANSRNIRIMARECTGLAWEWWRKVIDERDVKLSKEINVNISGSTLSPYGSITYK

In the case of “murine neutralizing monoclonal antibody (nAb) against Streptolysin O, Abcam AB23501”, the Kd is reported as 1.12 nM.
